The values below come from US20180312587A1 (ADURO BIOTECH HOLDINGS EUROPE B V, published 2018).

The target in experiment [1] is T1, human SIRPγ (human, UniProt Q9P1W8 29-387).
T1 construct: on transfected CHO-K1 cells; also called hSIRPγ
In words: CELISA, CHO-K1 transfectants; extrapolated. The procedure:
(§1) Binding of the humanized antibodies to hSIRPα was studied in CELISA format. Binding of the hSIRPα antibodies to human SIRPαV1, SIRPαV2, hSIRPβ1, and hSIRPγ was confirmed using CHO-K1 cells that had been transiently transfected with cDNA encoding the full length open reading frame of each of these respective targets subcloned into the pCI-neo vector. CHO-K1.hSIRPαV1, CHO-K1.hSIRPαV2, CHO-K1.hSIRPβ1, and CHO-K1.hSIRPγ cells were seeded in culture medium (DMEM-F12 (Gibco) supplemented with 5% New Born Calf Serum (BioWest) and Pen/Strep (Gibco)) in 96-well flat-bottom tissue culture plates and incubated at 37° C., 5% CO₂ and 95% humidity until cell layers were confluent. Subsequently, culture medium was removed and cells were incubated for 1 hour at 37° C., 5% CO₂ and 95% humidity with purified hSIRPα antibodies (10 μg/mL and dilutions thereof). Next, cells were washed with PBS-T and incubated for 1 hour at 37° C., 5% CO₂ and 95% humidity with goat-anti-human IgG-HRP conjugate (Jackson Immuno Research) or goat-anti-mouse IgG-HRP (Southern Biotech). Subsequently, cells were washed three times with PBS-T and anti-hSIRPα immunoreactivity was visualized with TMB Stabilized Chromogen (Invitrogen). Reactions were stopped with 0.5 M H₂SO₄ and absorbances were read at 450 and 610 nm. […] In Table 13 the EC50 values of the humanized hSIRPα antibodies are depicted.
(§2) Table 13: Binding of humanized and parental hSIRPα.50A antibodies to CHO-K1.hSIRPαV1, CHO-K1.hSIRPαV2, CHO-K1.hSIRPβ1, and CHO-K1.hSIRPγ cells.

The target in experiment [2] is T2, human SIRPβ1 (human, UniProt O00241 30-398).
T2 construct: also called hSIRPβ1
The experiment can be described thus: CELISA, CHO-K1 transfectants; nd = not detected. The procedure: as §1, §2

Experiment [3] has as its target T3, human SIRPα variant 1 (human, UniProt P78324 31-504).
T3 construct: full length ORF on transfected CHO-K1 or HEK293 cells; entry includes the signal peptide; also called hSIRPαV1; SIRPαV1
In words: CELISA, CHO-K1 transfectants; average of two experiments. The procedure:
as §1, §2

Experiment [4] deals with T4, human SIRPα variant 2 (human, UniProt P78324 31-504).
T4 construct: full length ORF on transfected CHO-K1 cells; also called hSIRPαV2; SIRPαV2
The description is as above. The procedure:
as §1, §2

For orientation: EC50 means the concentration giving half of the maximal effect.

T3 sequence (P78324 31-504 limits assumed, change not shown): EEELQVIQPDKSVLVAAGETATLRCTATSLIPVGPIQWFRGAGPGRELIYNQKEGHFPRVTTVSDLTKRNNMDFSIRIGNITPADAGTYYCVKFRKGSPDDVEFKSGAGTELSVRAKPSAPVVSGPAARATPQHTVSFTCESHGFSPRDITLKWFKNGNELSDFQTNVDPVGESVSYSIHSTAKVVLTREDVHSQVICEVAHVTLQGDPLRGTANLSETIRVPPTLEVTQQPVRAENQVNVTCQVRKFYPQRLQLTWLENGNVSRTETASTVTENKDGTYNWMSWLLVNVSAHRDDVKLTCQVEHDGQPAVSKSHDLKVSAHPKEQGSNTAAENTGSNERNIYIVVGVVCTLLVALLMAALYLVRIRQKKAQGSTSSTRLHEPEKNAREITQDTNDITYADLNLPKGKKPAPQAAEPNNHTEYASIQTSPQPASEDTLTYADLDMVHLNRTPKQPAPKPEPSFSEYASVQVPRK
T4 sequence (P78324 other isoform, or with tags, fused parts or gaps mutant limits assumed): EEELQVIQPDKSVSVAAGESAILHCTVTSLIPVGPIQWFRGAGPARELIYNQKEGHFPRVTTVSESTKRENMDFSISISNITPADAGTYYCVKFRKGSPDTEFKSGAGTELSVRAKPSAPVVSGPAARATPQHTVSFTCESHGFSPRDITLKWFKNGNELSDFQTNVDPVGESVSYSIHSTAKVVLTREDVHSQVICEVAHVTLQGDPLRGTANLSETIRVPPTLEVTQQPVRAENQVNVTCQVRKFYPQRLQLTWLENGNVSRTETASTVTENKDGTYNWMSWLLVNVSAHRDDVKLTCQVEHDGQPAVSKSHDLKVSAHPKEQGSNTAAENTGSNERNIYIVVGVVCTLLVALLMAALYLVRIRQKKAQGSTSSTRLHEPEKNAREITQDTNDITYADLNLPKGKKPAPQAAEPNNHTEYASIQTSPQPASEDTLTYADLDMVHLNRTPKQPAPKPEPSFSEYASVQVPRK
T2 sequence (O00241 30-398 limits assumed): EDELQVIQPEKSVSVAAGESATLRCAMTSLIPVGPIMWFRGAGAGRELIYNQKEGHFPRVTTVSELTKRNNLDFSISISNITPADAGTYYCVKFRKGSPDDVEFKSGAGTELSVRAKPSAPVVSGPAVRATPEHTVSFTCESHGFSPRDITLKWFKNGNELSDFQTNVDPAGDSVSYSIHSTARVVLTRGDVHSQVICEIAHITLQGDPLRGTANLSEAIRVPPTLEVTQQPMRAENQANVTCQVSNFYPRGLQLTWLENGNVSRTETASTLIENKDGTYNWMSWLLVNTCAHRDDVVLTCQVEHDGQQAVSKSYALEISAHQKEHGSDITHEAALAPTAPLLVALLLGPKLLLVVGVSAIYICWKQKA
T1 sequence (Q9P1W8 29-387 limits assumed): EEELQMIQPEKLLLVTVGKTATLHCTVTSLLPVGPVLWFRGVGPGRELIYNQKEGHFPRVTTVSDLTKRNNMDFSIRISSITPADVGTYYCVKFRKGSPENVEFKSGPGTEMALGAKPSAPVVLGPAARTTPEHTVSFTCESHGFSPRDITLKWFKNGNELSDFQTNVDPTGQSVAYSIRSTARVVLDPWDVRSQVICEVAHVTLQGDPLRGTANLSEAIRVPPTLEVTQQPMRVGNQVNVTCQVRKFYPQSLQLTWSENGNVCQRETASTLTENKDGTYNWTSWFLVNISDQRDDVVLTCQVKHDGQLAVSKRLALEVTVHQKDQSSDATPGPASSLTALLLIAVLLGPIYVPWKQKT

B1: hSIRPα.50A.H1L2 (antibody, human IgG4 S228P, kappa, V domains shown)
VH: EVQLQQSGAEVVKPGASVKVSCKASGFTFTNYYIHWVRQAPGQGLEWIGWIYPGNVNTKYNEKFKARVTITADKSTSTAYMDLSSLRSEDTAVYYCARPTIIATDFDVWGQGTTVTVSS
VL: DIVMTQSPSSLSASVGDRVTITCKASQGVGTAVGWYQQKPGKAPKLLIYWASTRHTGVPDRFSGSGSGTDFTLTISNLQPEDFADYYCQQYSTYPFTFGGGTKVEIKR
notes: human IgG4 S228P, kappa; also called hSIRPα.50H1L2
Regarding B1, the EC50 in experiment [1] was 1.26 nM; in experiment [3], 0.781 nM; in experiment [4] it was 0.816 nM. Also, the binding result in experiment [2] is “no binding (tested: 10 µg/mL and dilutions thereof)”.

B2: hSIRPα.50A.H3L1 (antibody, human IgG4 S228P, kappa, V domains shown)
VH: EVQLVQSGAEVVKPGASVMISCKASGFTFTNYYIHWVRQRPGQGLEWIGWIYPGNVNTKYNEKFKARVIMTADKSTSTVYMQLSSLTSEDTAVYYCARPTIIATDFDVWGQGTLVTVSS
VL: DIVLTQSPSFLSASVGDRVTITCKASQGVGTAVGWYQQKPGKAPKLLIYWASTRHTGVPDRFSGSGSGTEFTLTISSLQPEDFAAYYCQQYSTYPFTFGGGTKLEIKR
notes: human IgG4 S228P, kappa; also called hSIRPα.50H3L1
Turning to B2, the concentration for a half-maximal effect (EC50) was 1.42 nM in experiment [1], 1.1 nM in experiment [3] and 1.06 nM in experiment [4]. Further, in experiment [2], the binding result was “no binding (tested: 10 µg/mL and dilutions thereof)”.

B3: hSIRPα.50A.H1L5 (antibody, human IgG4 S228P, kappa, V domains shown)
VH: EVQLQQSGAEVVKPGASVKVSCKASGFTFTNYYIHWVRQAPGQGLEWIGWIYPGNVNTKYNEKFKARVTITADKSTSTAYMDLSSLRSEDTAVYYCARPTIIATDFDVWGQGTTVTVSS
VL: DIVLTQSPSFLSASVGDRVTITCKASQGVGTAVGWYQQKPGKSPKLLIYWASTRHTGVPDRFSGSGSGTEFTLTISNLQPEDFAAYYCQQYSTYPFTFGGGTKLEIKR
notes: human IgG4 S228P, kappa; also called hSIRPα.50H1L5
Turning to B3, the EC50 in experiment [1] is 1.01 nM; in experiment [3], 0.962 nM; in experiment [4] it was 0.848 nM. In experiment [2], the binding result was “no binding (tested: 10 µg/mL and dilutions thereof)”.

B4: hSIRPα.50A.H1L4 (antibody, human IgG4 S228P, kappa, V domains shown)
VH: EVQLQQSGAEVVKPGASVKVSCKASGFTFTNYYIHWVRQAPGQGLEWIGWIYPGNVNTKYNEKFKARVTITADKSTSTAYMDLSSLRSEDTAVYYCARPTIIATDFDVWGQGTTVTVSS
VL: DIQMTQSPSSLSASVGDRVTITCKASQGVGTAVGWYQKKPGKVPKLLIYWASTRHTGVPDRFSGSGSGTDFTLTINGLQPEDVATYYCQQYSTYPFTFGGGTKLEIKR
notes: human IgG4 S228P, kappa; also called hSIRPα.50H1L4
Turning to B4, the EC50 was 7.43 nM in experiment [1], 1.49 nM in experiment [3] and 1.62 nM in experiment [4]. Also, in experiment [2], the binding result is “no binding (tested: 10 µg/mL and dilutions thereof)”.

B5: hSIRPα.50A.H1L1 (antibody, human IgG4 S228P, kappa, V domains shown)
VH: EVQLQQSGAEVVKPGASVKVSCKASGFTFTNYYIHWVRQAPGQGLEWIGWIYPGNVNTKYNEKFKARVTITADKSTSTAYMDLSSLRSEDTAVYYCARPTIIATDFDVWGQGTTVTVSS
VL: DIVLTQSPSFLSASVGDRVTITCKASQGVGTAVGWYQQKPGKAPKLLIYWASTRHTGVPDRFSGSGSGTEFTLTISSLQPEDFAAYYCQQYSTYPFTFGGGTKLEIKR
notes: human IgG4 S228P, kappa; also called hSIRPα.50H1L1
As for B5, the EC50 in experiment [1] was 1.49 nM; in experiment [3], 0.883 nM; in experiment [4], 0.864 nM. Also, the binding result in experiment [2] is “no binding (tested: 10 µg/mL and dilutions thereof)”.

B6: hSIRPα.50A.H5L3 (antibody, human IgG4 S228P, kappa, V domains shown)
VH: EVQLVQSGAEVVKPGASVKVSCKASGFTFTNYYIHWVRQAPEQGLEWIGWIYPGNVNTKYNEKFKARVTMTADKSTSTAYMELSSLRSDDMAVYYCARPTIIATDFDVWGQGTTVTVSS
VL: ELVMTQSPSSLSASVGDRVTITCKASQGVGTAVGWYQQKPGKAPKLLIYWASTRHTGVPDRFSGSGSGTDFTLAISSLQPEDIADYYCQQYSTYPFTFGGGTKVEIKR
notes: human IgG4 S228P, kappa; also called hSIRPα.50H5L3
On to B6, for which the values for the EC50 in experiment [1], in experiment [3] and in experiment [4] were 1.61 nM, 1.03 nM and 0.796 nM, respectively. The binding result in experiment [2] is “no binding (tested: 10 µg/mL and dilutions thereof)”.

B7: hSIRPα.50A.H3L2 (antibody, human IgG4 S228P, kappa, V domains shown)
VH: EVQLVQSGAEVVKPGASVMISCKASGFTFTNYYIHWVRQRPGQGLEWIGWIYPGNVNTKYNEKFKARVIMTADKSTSTVYMQLSSLTSEDTAVYYCARPTIIATDFDVWGQGTLVTVSS
VL: DIVMTQSPSSLSASVGDRVTITCKASQGVGTAVGWYQQKPGKAPKLLIYWASTRHTGVPDRFSGSGSGTDFTLTISNLQPEDFADYYCQQYSTYPFTFGGGTKVEIKR
notes: human IgG4 S228P, kappa; also called hSIRPα.50H3L2
For the molecule B7, the EC50 in experiment [1] was 1.5 nM; in experiment [3], 1.05 nM; in experiment [4], 0.999 nM. Also, in experiment [2], the binding result was “no binding (tested: 10 µg/mL and dilutions thereof)”.

B8: hSIRPα.50A.H1L3 (antibody, human IgG4 S228P, kappa, V domains shown)
VH: EVQLQQSGAEVVKPGASVKVSCKASGFTFTNYYIHWVRQAPGQGLEWIGWIYPGNVNTKYNEKFKARVTITADKSTSTAYMDLSSLRSEDTAVYYCARPTIIATDFDVWGQGTTVTVSS
VL: ELVMTQSPSSLSASVGDRVTITCKASQGVGTAVGWYQQKPGKAPKLLIYWASTRHTGVPDRFSGSGSGTDFTLAISSLQPEDIADYYCQQYSTYPFTFGGGTKVEIKR
notes: human IgG4 S228P, kappa; also called hSIRPα.50H1L3
For B8, the figures for the EC50 in experiment [1], in experiment [3] and in experiment [4] were 2.58 nM, 1.09 nM and 1.11 nM, respectively. For the same molecule, the binding result in experiment [2] is “no binding (tested: 10 µg/mL and dilutions thereof)”.

B9: hSIRPα.50A.H5L1 (antibody, human IgG4 S228P, kappa, V domains shown)
VH: EVQLVQSGAEVVKPGASVKVSCKASGFTFTNYYIHWVRQAPEQGLEWIGWIYPGNVNTKYNEKFKARVTMTADKSTSTAYMELSSLRSDDMAVYYCARPTIIATDFDVWGQGTTVTVSS
VL: DIVLTQSPSFLSASVGDRVTITCKASQGVGTAVGWYQQKPGKAPKLLIYWASTRHTGVPDRFSGSGSGTEFTLTISSLQPEDFAAYYCQQYSTYPFTFGGGTKLEIKR
notes: human IgG4 S228P, kappa; also called hSIRPα.50H5L1
Consider B9, for which the results for the EC50 in experiment [1], in experiment [3] and in experiment [4] were 1.03 nM, 0.731 nM and 0.709 nM, respectively. In experiment [2], the binding result is “no binding (tested: 10 µg/mL and dilutions thereof)”.

B10: hSIRPα.50A.H5L2 (antibody, human IgG4 S228P, kappa, V domains shown)
VH: EVQLVQSGAEVVKPGASVKVSCKASGFTFTNYYIHWVRQAPEQGLEWIGWIYPGNVNTKYNEKFKARVTMTADKSTSTAYMELSSLRSDDMAVYYCARPTIIATDFDVWGQGTTVTVSS
VL: DIVMTQSPSSLSASVGDRVTITCKASQGVGTAVGWYQQKPGKAPKLLIYWASTRHTGVPDRFSGSGSGTDFTLTISNLQPEDFADYYCQQYSTYPFTFGGGTKVEIKR
notes: human IgG4 S228P, kappa; also called hSIRPα.50H5L2
As to B10, the EC50 in experiment [1] was 0.822 nM; in experiment [3], 0.675 nM; in experiment [4] it was 0.572 nM. Moreover, the binding result in experiment [2] is “no binding (tested: 10 µg/mL and dilutions thereof)”.

B11: hSIRPα.50A.H4L2 (antibody, human IgG4 S228P, kappa, V domains shown)
VH: EVQLQQSGAELVKPGASVKVSCKASGFTFTNYYIHWVRQRPGQGLEWMGWIYPGNVNTKYNEKFKAKATITADKSTSTAYMELSSLTSEDTAVYYCARPTIIATDFDVWGQGTTVTVSS
VL: DIVMTQSPSSLSASVGDRVTITCKASQGVGTAVGWYQQKPGKAPKLLIYWASTRHTGVPDRFSGSGSGTDFTLTISNLQPEDFADYYCQQYSTYPFTFGGGTKVEIKR
notes: human IgG4 S228P, kappa; also called hSIRPα.50H4L2
Turning to B11, the EC50 in experiment [1] was 0.871 nM; in experiment [3], 0.737 nM; in experiment [4], 0.651 nM. Further, the binding result in experiment [2] was “no binding (tested: 10 µg/mL and dilutions thereof)”.

B12: hSIRPα.50A.H4L3 (antibody, human IgG4 S228P, kappa, V domains shown)
VH: EVQLQQSGAELVKPGASVKVSCKASGFTFTNYYIHWVRQRPGQGLEWMGWIYPGNVNTKYNEKFKAKATITADKSTSTAYMELSSLTSEDTAVYYCARPTIIATDFDVWGQGTTVTVSS
VL: ELVMTQSPSSLSASVGDRVTITCKASQGVGTAVGWYQQKPGKAPKLLIYWASTRHTGVPDRFSGSGSGTDFTLAISSLQPEDIADYYCQQYSTYPFTFGGGTKVEIKR
notes: human IgG4 S228P, kappa; also called hSIRPα.50H4L3
For the molecule B12, the EC50 in experiment [1] is 1.6 nM; in experiment [3], 0.933 nM; in experiment [4], 0.898 nM. Besides, the binding result in experiment [2] was “no binding (tested: 10 µg/mL and dilutions thereof)”.

B13: hSIRPα.50A.H5L5 (antibody, human IgG4 S228P, kappa, V domains shown)
VH: EVQLVQSGAEVVKPGASVKVSCKASGFTFTNYYIHWVRQAPEQGLEWIGWIYPGNVNTKYNEKFKARVTMTADKSTSTAYMELSSLRSDDMAVYYCARPTIIATDFDVWGQGTTVTVSS
VL: DIVLTQSPSFLSASVGDRVTITCKASQGVGTAVGWYQQKPGKSPKLLIYWASTRHTGVPDRFSGSGSGTEFTLTISNLQPEDFAAYYCQQYSTYPFTFGGGTKLEIKR
notes: human IgG4 S228P, kappa; also called hSIRPα.50H5L5
Regarding B13, the results for the EC50 in experiment [1], in experiment [3] and in experiment [4] were 0.868 nM, 0.681 nM and 0.611 nM, respectively. Further, the binding result in experiment [2] was “no binding (tested: 10 µg/mL and dilutions thereof)”.
